Source: patent US20090130093A1 (AstraZeneca / MedImmune, published 2009)
Positions count from the first letter of the chain named.

B1: Antibody 13 IgG4 (antibody, V domains shown)
VH: QVQLVQSGAEVKKPGASVKVSCKISGHSLSELSIHWVRQTPTKGFEWMGGFDPEENEIVYAQRFQGRVTMTEDTSIDTAYLTLSSLRSDDTAVYYCSIVGSFSGWAFDYWGKGTMVTVSS
VL: QAVLTQPSSVSGAPGQRVTISCTGSGSNIGAPYDVSWYQQLPGTAPKLLIYHNNKRPSGVPDRFSASKSGTSASLAITGLQADDEADYYCQSYDSRTGIIVFGGGTKVTVL
B2: 28G5 (Antibody 3) IgG4, parent antibody (antibody, V domains shown)
VH: B1 VH
VL: B1 VL with R96S, T97L, G98S, I99G, I100S
B3: Antibody 6 IgG4, non-germlined (antibody, V domains shown)
VH: B1 VH with G104P, W105L, A106T, F107L, D108G, Y109L
VL: QAVLTQPSSVSGAPGQRVTISCTGSGSNIGAPYDVSWYQQLPGTAPKLLIYHNNKRPSGVPDRFSASKSGTSASLAITGLQADDEADYYCATVEAGLSGSVFGGGTKLTVL
B4: Antibody 18 IgG4 (antibody, V domains shown)
VH: B1 VH with S33F, I98T, W105P, F107L, D108H, Y109L
VL: B1 VL with R96Q, T97W, G98N, I99Q, I100P, V101L
B5: Antibody 2 IgG4 (antibody, V domains shown)
VH: B1 VH with W105P, F107L, D108R, Y109P
VL: B1 VL with R96S, T97L, G98S, I99G, I100S
B6: Antibody 6 (germlined or non-germlined not stated at these places) (antibody, V domains shown)
VH: QVQLVQSGAEVKKPGASVKVSCKVSGYTLTELSIHWVRQAPGKGLEWMGGFDPEENEIVYAQRFQGRVTMTEDTSTDTAYMELSSLRSEDTAVYYCAIVGSFSPLTLGLWGQGTMVTVSS
VL: B3 VL with A2S, S8P, A66G, D83E

Experiments:
Experiment in all cases: cell-based or functional assay
[1] = molecular target: T1, human GM-CSFRα (mature receptor alpha chain, as on human cells) (human, UniProt P15509 23-400)
T1 sequence: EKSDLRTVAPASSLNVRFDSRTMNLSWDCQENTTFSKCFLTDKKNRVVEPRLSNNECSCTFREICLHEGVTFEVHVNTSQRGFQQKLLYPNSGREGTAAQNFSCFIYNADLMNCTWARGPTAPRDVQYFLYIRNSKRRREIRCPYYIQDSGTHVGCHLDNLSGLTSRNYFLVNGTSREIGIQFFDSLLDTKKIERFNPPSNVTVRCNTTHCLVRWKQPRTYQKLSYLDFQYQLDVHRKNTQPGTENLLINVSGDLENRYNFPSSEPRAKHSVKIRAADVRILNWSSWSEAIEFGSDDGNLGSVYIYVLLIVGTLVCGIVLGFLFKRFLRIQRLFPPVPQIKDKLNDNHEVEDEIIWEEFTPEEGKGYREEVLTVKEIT

[2] = molecular target: T2, cynomolgus GM-CSFRα on cynomolgus granulocytes (cynomolgus, UniProt A0A2K5UC70 23-393)
T2 sequence: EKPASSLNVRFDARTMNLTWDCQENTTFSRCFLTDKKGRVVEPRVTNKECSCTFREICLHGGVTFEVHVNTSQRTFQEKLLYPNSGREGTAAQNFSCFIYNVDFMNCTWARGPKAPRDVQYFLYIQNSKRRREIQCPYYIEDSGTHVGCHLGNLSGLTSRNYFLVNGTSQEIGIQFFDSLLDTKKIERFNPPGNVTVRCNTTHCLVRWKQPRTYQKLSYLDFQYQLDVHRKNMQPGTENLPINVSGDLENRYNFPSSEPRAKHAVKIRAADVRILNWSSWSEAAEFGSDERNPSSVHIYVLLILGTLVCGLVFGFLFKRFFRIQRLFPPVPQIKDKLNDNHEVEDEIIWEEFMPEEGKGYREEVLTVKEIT

[3] = molecular target: T1, human GM-CSFRα (mature receptor alpha …); remark: listed apart in the source

Row | Binder | IC50, GM-CSF induced proliferation of TF-1 cells [1] | IC50, cynomolgus granulocyte shape change assay [2] | also measured
1 | B1 | 1.11 nM | – | –
2 | B2 | – | ~5 nM | –
3 | B3 | – | 0.00173 nM | –
4 | B4 | 0.0133 nM | – | –
5 | B5 | – | 0.0032 nM | –
6 | B6 | – | – | IC50, colony formation assay with 10 ng/ml human GM-CSF [3]: ~0.08 µg/mL
